Changes are numbered by the printed parent chain.
B1: ACI-7079-2603C1-Ab3 (antibody, V domains shown)
VH: QVQLQQPGADLVKPGASVKLSCKASGYTFTSYWMQWTKQRPGQGLEWIGEIDPSDSYANYNQKFKGKATLTVDKYSSTAYMQLNSLTSEDSAVYYCALYDGPSYWGQGTLVTVS
VL: ENVLTQSPAIMSASPGEKVTMTCSAGSSVSYMHWFQQKSSTSPKLWIYDTSKLPSGVPGRFSGSGSGNSYSLTISSMEAEDVATYYCFQGSGYPYTFGGGTKLEIK
B2: ACI-7079-2507B3-Ab1 (antibody, V domains shown)
VH: EVQLVESGGGLVQPKGSLKVSCAASGFTFKTYAMHWVRQAPGKGLEWVARIRSENSNFAKYYADSVKDRFTISRDDSQSMLYLQMHTLKTEDTAIYYCVRGYNGSSLDYWGQGTTLTVSS
VL: QIVLTQSPAIMSAFPGERVTMTCSASSSVNYMHWYQQKSGTSPKRWIYDTSKLASGVPARFSGGGSGTSYSLTISNMEAEDAATYYCQQWRSNPPTFGGGTKLEIK
B3: ACI-7067-1106A8-Ab2 (antibody, V domains shown)
VH: EVQLVESGGGLVQPKGSLKLSCAASGFTFNTYAMHWVRQAPGKGLEWVARIRSKGSNYATNYADSVKDRFTISRDDSQSMLYLQMNNLKTEDTAMYYCVRGHGSSYFSYWGQGTLVTVSA
VL: B2 VL with F14S, R18K, N30S, K52N, G64S, N76S, R91N, N93H, G99A, I105L
B4: ACI-7067-1102G3-Ab1 (antibody, V domains shown)
VH: EVKLEESGGGLVQPGGSMKLSCAASGFTFSDAWMNWVRQSPEKGLEWVAEIRNKAHNHATYYAESVKGRFTISGDDSKSSVYLQMNNLRAEDTGIYYCTIYSYWGQGTLVTVSA
VL: SIVMTQTPKFLLVSAGDRVTITCKASQSVTKDVAWYQQKPGQSPKLLIYSTSNRYSGVPDRFTGSGYGTDFTFTINTVQTEDLAVYFCQQDYRIPYTFGGGTKLEIK
B5: ACI-7067-1107G5-Ab2 (antibody, V domains shown)
VH: QVQLQQPGTELVKPGASVKLSCKASGYTFTKYWMHWVKQRPGQGLEWIGNINPNNGDTNYNEKFKSKATLTVDKSSSTAYMQLSSLTSEDSAVYYCAIAMDYWGQGTSVTVSS
VL: DIQMTQSPSSLSAFLGERVSLTCRASQDIGNNLNWFQQEPDGTIKRLIYATSSLDSGVPKRFSGSRSGSEYSLTISSLESEDFVDYYCLQFGSSPLTFGAGTKLELK
B6: ACI-7088-4303A1-Ab1 (antibody, V domains shown)
VH: EVQLQQSGAELVRPGASVKLSCTASGFNIKDDYMHWVKQRPEQGLEWIGWIDPENGDSEYASKFQGKATMTADTSSNTAYLQLSSLTSEDTAVYYCKTWGTAQALFPYWGQGTLVTVSA
VL: DIVMTQSQKFMSTSVGDRVSITCKASQNVGTSVGWYQQKAGQSPKLLIHSASNRYTGVPDRFTGSGSGTDFTLTINNMQSEDLADYFCQQYRSYPLTFGAGTKLELK
B7: ACI-7088-4305H7-Ab1 (antibody, V domains shown)
VH: B6 VH with S58T, T71I, A102T, A119S
VL: B6 VL with S32A
B8: ACI-7079-2506E2-Ab2 (antibody, V domains shown)
VH: QVQLQQSGPELVRPGASVKISCKASGYAFSNSWMNWVKQRPGKGLEWIGRIFPGDGDTYYDGKFKGKVKLTTDKFSNTAYMQLRSLTSEDSAVYFCARWGGTNDEWFAHWGQGTLVTVSV
VL: DIVLTQSPASLTVSLGQRATISCRASQSVSTSRNSYMHWYQQKPRQPPKLLIKYASNLESGVPARFSGSGSGADFTLNIHPVEEEDTATYYCQHSWDIPLTFGTGTKLELS
B9: ACI-7088-4303H6-Ab1 (antibody, V domains shown)
VH: EVQLQQSGAELVRPGASVKLSCTASGFNIQDDYMHWVKQRPEQGLEWIGWIDPENGDTEYASKFQGKATLTADTSSNTAYLQLSRLTSEDTAVYYCTTAGSGVQLFDYWGQGTTLTVSA
VL: DILMTQSQKFMSTSVGDRVSVTCKASQNVGTNVAWYQQKPGQSPKPLISSASSRYSGVPDRFTGSGSGTDFTLTISNVQSEDLADYFCQQYNRYPLTFGAGTKLELK
B10: ACI-7079-2602G4-Ab4 (antibody, V domains shown)
VH: B3 VH with N30K, N57D, N61Y, Y97F, H102G, G103A, S104D, Y106W, S108A, A120T
VL: QIVLTQSPAIMSASPGERITMTCTASSSVSYMHWYQQKSGTSPKRWIYDTSKLASGVPARFSGSGSGASYTLTISSMEAEDAATYYCQQWNRNPPTFGGGTQLAIK
B11: ACI-7079-2605B3-Ab2 (antibody, V domains shown)
VH: EVQLVESGGGLVQPKGSLKLSCAASGFIFKTYAMHWVRQAPGKGLEWVARIRSKGGNYATYFADSVKDRFTISRDDSQNMLYLQVNNLKIEDTAMYFCVRGGNYSWFAYWGQGTLVTVSA
VL: QIVLTQSPAIMSASPGEKVTMTCSASSSVTYMHWYQQKSGTSPKRWIYDTSQLASGVPARFSGSGSGTSHSLTISSMETEDAATYYCQQWTRNPPTFGGGTKLAIK
B12: ACI-7089-4409F1-Ab1 (antibody, V domains shown)
VH: DVQLQESGPGLVKPSQSLSLTCSVTGYSITRGYYWNWIRQFPGNKLEWMGYISYDGSNNYNPSLRNRISITRDTSKNQFFLKLKSVTTEDTATYFCARGDSNWGQGTTLTVSA
VL: not shown
B13: ACI-7079-2506F3-Ab1 (antibody, V domains shown)
VH: QVQLQQPGAELVKPGASVKLSCKASGYTFTTYWMQWVKQRPGQGLEWIGEIDPSDSYINYNQKFKGKATLTVDTSSSTAFMQLSSLTSEDSAVYYCARGMMDYWGQGTSVTVSS
VL: DVLMTQTPLSLPVSLGDQASISCRSSQSIVHSNGNTYLEWYLQKPGQSPKLLIYKVSNRFSGVPDRFSGSGSGTDFTLKISRVEAEDLGVYYCFKGSHVPYTFGGGTKLEIK
B14: ACI-8033-1G10-Ab1 (antibody, V domains shown)
VH: DVQLQESGPGLVKPSQTVFLTCTVTGISITTGNYRWSWIRQFPGNKLEWIGYIYYSGTITYNPSLTSRTTITRDTPKNQFFLEMNSLTAEDTATYYCARIYYGNAMDYWGQGTSVTVSS
VL: B13 VL with L3V, I29L, E39H, Y92F, F94S, K95Q, G96S, S97T, Y101H
B15: ACI-7088-4303A3-Ab1 (antibody, V domains shown)
VH: QVQLQQSGAELVRPGASVTLSCKASGYTFTDYEMHWVKQTPVHGLEWIGVIDPETGGAVQNQKFKGKAILTADNSSSTAYMDLRSLTSEDSAVYNCAMGAALRLAYWGQGTLVTVSS
VL: B13 VL with T36S, S81N, K95Q, Y101F, G105S
B16: ACI-7088-4301H3-Ab2 (antibody, V domains shown)
VH: EVQLQQSGPELVKPGASVKISCKASGYTFADYFMNWVKQSHGKSLEWIGDINPNNGGTTYNQKFKGKATLTVDKSSNTAYMELRSLTSEDSAVYYCARGRNYAMDYWGQGTSVTVSS
VL: DIVMSQSPSSLAVSAGEKVTMSCKSSQSLLNSRTRKNYLAWYQQKPGQSPKLLIYSASTRESGVPDRFTGSGFGTDFTLTISSVQAEDLAVYYCKQSYDLWTFGGGTKLEIK
B17: ACI-7079-2606A6-Ab2 (antibody, V domains shown)
VH: QVQLQQSGPELVKPGASVKISCKASGFAFSSSWMNWVKQRPGKGLEWVGRIFPGDGDTNYDRKFKDKATLTADKSSSTAYMQLSSLTSEDSAVYFCARWTGGYDWFAYWGQGTLVTVSA
VL: DIVLTQSPASLAVSLGQRATISCRASQSVSTSNYNYLHWYQQKPGQPPKLLITYASNLESGVPARFSGSGSGTDFTLNIHPVEEGDTATYYCQHSWEIPLTFGAGTKLELK
B18: ACI-7079-2511B3-Ab3 (antibody, V domains shown)
VH: DVQLQESGPGLVKPSQSLSLTCSVTGFSITSYYYWNWIRQFPGNKLEWMAYISYDGSNNYNPSLKNRISITRDTSKNQFFLKLNSVTTEDTATYYCTRGDWDWGQGTLVTVSA
VL: not shown
B19: ACI-8033-5A12-Ab1 (antibody, V domains shown)
VH: QVHLKQSGADLVRPGASVKLSCKASGYTFTDYYINWVKQRPGQGLEWIARIYPGSGNTYYNEKFKGRATLSAEKSSTTAYMQLSSLTSEDSAVYFCVVGYYGAWGQGTTLTVSS
VL: DVVMTQTPLSLPVSLGDQASISCRSSQSLVHSNGKTHLHWYLQKPGQSPKLLIYKVSNRFSGVPDRFSGSGSGTDFTLKISRVEAEDLGVYFCSQSTHVPWTFGGGTKLEIK

target: alpha-synuclein fibrils, P37840; experiment: SPR, captured mAb; conditions: remark: other sources report otherwise

In order of falling Kd:
1. B8  91.9 nM
2. B16  86.5 nM
3. B17  56.2 nM
4. B9  43.7 nM
5. B1  40.3 nM
6. B2  34.9 nM
7. B4  30.6 nM
8. B18  29.5 nM
9. B3  25 nM
10. B10  18.9 nM
11. B11  17.4 nM
12. B5  16.1 nM
13. B6  13.5 nM
14. B15  9.4 nM
15. B12  8.8 nM
16. B13  8.8 nM
17. B7  8.4 nM
18. B14  3.7 nM
19. B19  0.1 nM

In order of falling koff:
1. B1  51.7 s⁻¹
2. B3  0.00721 s⁻¹
3. B12  0.00587 s⁻¹
4. B5  0.00218 s⁻¹
5. B4  0.00135 s⁻¹
6. B16  0.000898 s⁻¹
7. B17  0.000862 s⁻¹
8. B2  0.000668 s⁻¹
9. B9  0.000636 s⁻¹
10. B15  0.000606 s⁻¹
11. B8  0.000476 s⁻¹
12. B18  0.000312 s⁻¹
13. B11  0.000294 s⁻¹
14. B6  0.000244 s⁻¹
15. B10  0.000234 s⁻¹
16. B7  0.000203 s⁻¹
17. B13  0.000161 s⁻¹
18. B14  6.54e-05 s⁻¹
19. B19  4.37e-06 s⁻¹

In order of falling kon:
1. B1  1.28e+09 M⁻¹ s⁻¹
2. B12  667000 M⁻¹ s⁻¹
3. B5  345000 M⁻¹ s⁻¹
4. B3  284000 M⁻¹ s⁻¹
5. B15  64700 M⁻¹ s⁻¹
6. B4  46000 M⁻¹ s⁻¹
7. B19  30600 M⁻¹ s⁻¹
8. B7  24200 M⁻¹ s⁻¹
9. B2  19100 M⁻¹ s⁻¹
10. B13  18300 M⁻¹ s⁻¹
11. B6  18100 M⁻¹ s⁻¹
12. B14  17700 M⁻¹ s⁻¹
13. B11  16800 M⁻¹ s⁻¹
14. B17  15400 M⁻¹ s⁻¹
15. B9  14600 M⁻¹ s⁻¹
16. B10  12400 M⁻¹ s⁻¹
17. B18  10600 M⁻¹ s⁻¹
18. B16  10400 M⁻¹ s⁻¹
19. B8  5190 M⁻¹ s⁻¹

target: monomeric alpha-synuclein, P37840; experiment: SPR, captured mAb; conditions: remark: other sources report otherwise

In order of rising Kd:
1. B15  1 nM
2. B13  2.4 nM
3. B2  2.6 nM
4. B7  3.4 nM
5. B10  3.9 nM
6. B11  3.9 nM
7. B17  4.8 nM
8. B18  6.3 nM
9. B12  6.4 nM
10. B5  7.2 nM
11. B8  7.6 nM
12. B4  8 nM
13. B1  10.9 nM
14. B3  23.2 nM
15. B6  37.1 nM
16. B16  119 nM
17. B9  195 nM

In order of falling koff:
1. B1  6.06 s⁻¹
2. B7  0.0924 s⁻¹
3. B6  0.0632 s⁻¹
4. B9  0.0067 s⁻¹
5. B3  0.005 s⁻¹
6. B17  0.00412 s⁻¹
7. B16  0.00329 s⁻¹
8. B5  0.00114 s⁻¹
9. B11  0.00109 s⁻¹
10. B15  0.00107 s⁻¹
11. B4  0.00103 s⁻¹
12. B12  0.000992 s⁻¹
13. B10  0.000867 s⁻¹
14. B2  0.000642 s⁻¹
15. B8  0.000615 s⁻¹
16. B18  0.000583 s⁻¹
17. B13  0.00051 s⁻¹

In order of falling kon:
1. B1  5.58e+08 M⁻¹ s⁻¹
2. B7  2.73e+07 M⁻¹ s⁻¹
3. B6  1.7e+06 M⁻¹ s⁻¹
4. B15  1.04e+06 M⁻¹ s⁻¹
5. B17  860000 M⁻¹ s⁻¹
6. B11  283000 M⁻¹ s⁻¹
7. B2  245000 M⁻¹ s⁻¹
8. B10  223000 M⁻¹ s⁻¹
9. B3  218000 M⁻¹ s⁻¹
10. B13  210000 M⁻¹ s⁻¹
11. B5  158000 M⁻¹ s⁻¹
12. B12  154000 M⁻¹ s⁻¹
13. B4  129000 M⁻¹ s⁻¹
14. B18  92800 M⁻¹ s⁻¹
15. B8  80900 M⁻¹ s⁻¹
16. B9  34400 M⁻¹ s⁻¹
17. B16  27600 M⁻¹ s⁻¹
